From US20090142377 come the findings set out here.

Series [1] addresses CH5-4 (nH5 incubated with 100 mM glucose-6-phosphate for 67 h at 80 C), H5 of A/Vietnam/1203/04.
In series [2] the target is CH5-2 (nH5 heat-cycled at pH 2, back to pH 7), H5 of A/Vietnam/1203/04.
The target of series [3] is cross-beta factor VIII form 12: Helixate FVIII incubated for 1 week at 37 C, stored at 4 C, P00451.
Series [4] has as its target CH5-3 (nH5 heat-cycled at pH 12, back to pH 7), H5 of A/Vietnam/1203/04.
Series [5] concerns the target T1, dOVA-1: ovalbumin 5.2 mg/ml in HBS, acidified with HCl, 40 minutes at 37 C, neutralized, P01012.
T1 chain: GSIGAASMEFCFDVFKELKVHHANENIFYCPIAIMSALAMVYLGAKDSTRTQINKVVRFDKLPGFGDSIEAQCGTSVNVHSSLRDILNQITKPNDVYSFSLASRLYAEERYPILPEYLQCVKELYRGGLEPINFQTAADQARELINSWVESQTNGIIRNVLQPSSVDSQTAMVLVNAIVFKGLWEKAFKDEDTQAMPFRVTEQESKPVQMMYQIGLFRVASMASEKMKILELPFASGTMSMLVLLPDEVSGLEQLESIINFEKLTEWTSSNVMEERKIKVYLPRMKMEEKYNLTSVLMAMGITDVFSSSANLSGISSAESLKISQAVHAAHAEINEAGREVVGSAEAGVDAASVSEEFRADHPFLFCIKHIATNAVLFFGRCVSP

The target in series [6] is cFVIII-5: Helixate FVIII kept at 95 C for 5 minutes.
For series [7], the target named is T2, dOVA-3: ovalbumin 1 mg/ml in PBS, about 16 h at 75 C, P01012.
T2 chain: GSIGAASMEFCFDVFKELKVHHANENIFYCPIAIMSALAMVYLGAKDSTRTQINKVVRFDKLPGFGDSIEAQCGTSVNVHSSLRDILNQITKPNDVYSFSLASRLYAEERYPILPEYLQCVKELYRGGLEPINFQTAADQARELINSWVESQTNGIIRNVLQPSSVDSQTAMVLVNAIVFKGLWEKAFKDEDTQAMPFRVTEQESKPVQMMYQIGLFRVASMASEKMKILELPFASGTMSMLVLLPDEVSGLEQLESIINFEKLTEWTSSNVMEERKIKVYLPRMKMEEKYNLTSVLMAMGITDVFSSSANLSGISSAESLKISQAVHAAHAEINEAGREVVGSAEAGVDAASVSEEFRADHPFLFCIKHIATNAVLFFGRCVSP

Series [8] concerns the target cross-beta FVIII-1 (cFVIII-1): Helixate FVIII kept at 4 C for 20 hours, stored at -80 C.
Series [9] concerns the target CH5-1 (nH5 heat-cycled three times 25 to 85 C), H5 of A/Vietnam/1203/04.
The target of series [10] is T3, dOVA-2: ovalbumin 1 mg/ml in PBS, five heat cycles 30 to 85 C, P01012.
T3 chain: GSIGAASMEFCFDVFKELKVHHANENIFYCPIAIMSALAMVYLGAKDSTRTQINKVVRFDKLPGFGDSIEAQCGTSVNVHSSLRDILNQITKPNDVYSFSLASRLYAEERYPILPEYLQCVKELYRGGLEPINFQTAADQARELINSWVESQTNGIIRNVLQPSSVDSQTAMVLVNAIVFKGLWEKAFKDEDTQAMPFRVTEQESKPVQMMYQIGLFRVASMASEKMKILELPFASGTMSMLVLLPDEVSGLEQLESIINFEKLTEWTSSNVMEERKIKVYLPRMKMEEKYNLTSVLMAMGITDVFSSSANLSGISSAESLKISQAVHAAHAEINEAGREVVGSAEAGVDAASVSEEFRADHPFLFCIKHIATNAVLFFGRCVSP

The target in series [11] is non-treated H5 (nH5) of H5N1 strain A/Vietnam/1203/04 (Protein Sciences).
Series [12] addresses T4, cross-beta nOVA: ovalbumin (chicken egg-white albumin) dissolved at 1 mg/ml in PBS, P01012.
T4 chain: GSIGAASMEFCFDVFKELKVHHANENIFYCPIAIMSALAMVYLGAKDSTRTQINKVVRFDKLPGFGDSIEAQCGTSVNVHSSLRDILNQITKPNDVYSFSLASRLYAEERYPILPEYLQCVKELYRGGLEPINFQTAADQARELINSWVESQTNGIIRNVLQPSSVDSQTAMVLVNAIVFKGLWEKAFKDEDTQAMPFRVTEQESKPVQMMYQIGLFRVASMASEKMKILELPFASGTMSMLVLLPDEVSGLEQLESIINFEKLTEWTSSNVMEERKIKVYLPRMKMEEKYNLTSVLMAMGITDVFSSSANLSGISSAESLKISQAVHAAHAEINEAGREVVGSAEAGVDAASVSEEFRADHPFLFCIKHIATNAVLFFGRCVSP

Sequence of cross-beta factor VIII form 12: Helixate FVIII incubated for 1 week at 37 C, stored at 4 C, P00451 (P00451 whole entry, looked up): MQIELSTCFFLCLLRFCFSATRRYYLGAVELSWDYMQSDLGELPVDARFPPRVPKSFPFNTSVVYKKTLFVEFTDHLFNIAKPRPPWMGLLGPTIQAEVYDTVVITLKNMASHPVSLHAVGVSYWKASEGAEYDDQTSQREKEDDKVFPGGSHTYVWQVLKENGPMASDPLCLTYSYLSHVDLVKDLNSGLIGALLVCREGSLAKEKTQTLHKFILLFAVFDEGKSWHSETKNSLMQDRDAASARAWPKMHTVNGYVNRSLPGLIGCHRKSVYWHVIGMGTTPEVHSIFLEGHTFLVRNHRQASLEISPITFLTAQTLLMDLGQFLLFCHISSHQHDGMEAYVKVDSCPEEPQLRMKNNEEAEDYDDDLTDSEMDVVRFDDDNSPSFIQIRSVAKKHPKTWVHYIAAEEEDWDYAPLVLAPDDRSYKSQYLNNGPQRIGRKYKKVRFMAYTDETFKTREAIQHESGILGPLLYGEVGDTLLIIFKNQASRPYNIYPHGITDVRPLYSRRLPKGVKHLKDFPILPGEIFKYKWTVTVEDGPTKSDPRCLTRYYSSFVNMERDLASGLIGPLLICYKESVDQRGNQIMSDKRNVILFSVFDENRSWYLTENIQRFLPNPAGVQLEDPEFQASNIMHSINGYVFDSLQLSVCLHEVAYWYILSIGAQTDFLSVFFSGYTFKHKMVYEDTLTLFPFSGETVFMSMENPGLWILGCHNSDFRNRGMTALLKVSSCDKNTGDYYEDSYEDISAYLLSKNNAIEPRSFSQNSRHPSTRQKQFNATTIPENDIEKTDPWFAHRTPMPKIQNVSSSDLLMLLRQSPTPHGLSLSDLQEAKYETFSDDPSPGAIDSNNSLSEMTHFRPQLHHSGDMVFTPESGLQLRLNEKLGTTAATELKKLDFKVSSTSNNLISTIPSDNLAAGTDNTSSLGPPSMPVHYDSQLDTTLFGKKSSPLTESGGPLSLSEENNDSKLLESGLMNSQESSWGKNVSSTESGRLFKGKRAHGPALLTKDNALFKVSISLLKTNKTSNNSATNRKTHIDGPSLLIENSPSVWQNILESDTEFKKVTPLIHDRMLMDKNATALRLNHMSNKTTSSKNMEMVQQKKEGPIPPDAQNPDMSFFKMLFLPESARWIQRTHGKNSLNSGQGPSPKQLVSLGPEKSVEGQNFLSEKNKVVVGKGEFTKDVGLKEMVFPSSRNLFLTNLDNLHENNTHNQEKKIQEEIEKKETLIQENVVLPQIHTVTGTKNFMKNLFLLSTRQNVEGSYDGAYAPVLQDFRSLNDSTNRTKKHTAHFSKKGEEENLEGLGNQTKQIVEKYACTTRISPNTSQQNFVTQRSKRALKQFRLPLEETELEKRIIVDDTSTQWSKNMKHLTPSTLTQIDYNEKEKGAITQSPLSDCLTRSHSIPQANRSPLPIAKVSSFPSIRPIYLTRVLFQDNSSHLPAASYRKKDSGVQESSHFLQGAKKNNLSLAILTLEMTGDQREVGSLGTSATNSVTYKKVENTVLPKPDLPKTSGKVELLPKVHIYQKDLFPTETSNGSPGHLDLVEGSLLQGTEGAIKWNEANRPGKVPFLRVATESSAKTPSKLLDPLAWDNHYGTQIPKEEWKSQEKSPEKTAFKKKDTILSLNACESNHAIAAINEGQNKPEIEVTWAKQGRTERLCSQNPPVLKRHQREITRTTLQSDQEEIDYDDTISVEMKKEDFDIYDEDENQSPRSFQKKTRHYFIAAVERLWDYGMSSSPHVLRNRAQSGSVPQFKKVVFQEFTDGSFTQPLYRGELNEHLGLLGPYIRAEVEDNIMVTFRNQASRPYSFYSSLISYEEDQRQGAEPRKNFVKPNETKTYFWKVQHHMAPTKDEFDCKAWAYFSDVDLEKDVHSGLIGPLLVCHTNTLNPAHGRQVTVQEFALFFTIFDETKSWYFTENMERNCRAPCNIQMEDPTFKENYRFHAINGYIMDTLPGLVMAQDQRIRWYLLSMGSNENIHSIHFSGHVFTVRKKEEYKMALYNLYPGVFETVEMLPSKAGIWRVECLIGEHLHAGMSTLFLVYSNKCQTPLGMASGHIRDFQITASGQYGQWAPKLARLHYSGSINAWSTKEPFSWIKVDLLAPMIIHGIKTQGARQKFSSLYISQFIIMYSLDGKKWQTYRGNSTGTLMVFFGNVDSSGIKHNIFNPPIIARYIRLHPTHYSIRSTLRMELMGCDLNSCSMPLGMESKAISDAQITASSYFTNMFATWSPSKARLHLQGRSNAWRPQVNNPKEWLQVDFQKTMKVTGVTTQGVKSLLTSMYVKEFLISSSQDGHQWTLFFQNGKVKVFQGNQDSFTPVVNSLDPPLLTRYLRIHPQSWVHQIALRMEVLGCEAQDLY
Sequence of cFVIII-5: Helixate FVIII kept at 95 C for 5 minutes (chain, as listed by the source): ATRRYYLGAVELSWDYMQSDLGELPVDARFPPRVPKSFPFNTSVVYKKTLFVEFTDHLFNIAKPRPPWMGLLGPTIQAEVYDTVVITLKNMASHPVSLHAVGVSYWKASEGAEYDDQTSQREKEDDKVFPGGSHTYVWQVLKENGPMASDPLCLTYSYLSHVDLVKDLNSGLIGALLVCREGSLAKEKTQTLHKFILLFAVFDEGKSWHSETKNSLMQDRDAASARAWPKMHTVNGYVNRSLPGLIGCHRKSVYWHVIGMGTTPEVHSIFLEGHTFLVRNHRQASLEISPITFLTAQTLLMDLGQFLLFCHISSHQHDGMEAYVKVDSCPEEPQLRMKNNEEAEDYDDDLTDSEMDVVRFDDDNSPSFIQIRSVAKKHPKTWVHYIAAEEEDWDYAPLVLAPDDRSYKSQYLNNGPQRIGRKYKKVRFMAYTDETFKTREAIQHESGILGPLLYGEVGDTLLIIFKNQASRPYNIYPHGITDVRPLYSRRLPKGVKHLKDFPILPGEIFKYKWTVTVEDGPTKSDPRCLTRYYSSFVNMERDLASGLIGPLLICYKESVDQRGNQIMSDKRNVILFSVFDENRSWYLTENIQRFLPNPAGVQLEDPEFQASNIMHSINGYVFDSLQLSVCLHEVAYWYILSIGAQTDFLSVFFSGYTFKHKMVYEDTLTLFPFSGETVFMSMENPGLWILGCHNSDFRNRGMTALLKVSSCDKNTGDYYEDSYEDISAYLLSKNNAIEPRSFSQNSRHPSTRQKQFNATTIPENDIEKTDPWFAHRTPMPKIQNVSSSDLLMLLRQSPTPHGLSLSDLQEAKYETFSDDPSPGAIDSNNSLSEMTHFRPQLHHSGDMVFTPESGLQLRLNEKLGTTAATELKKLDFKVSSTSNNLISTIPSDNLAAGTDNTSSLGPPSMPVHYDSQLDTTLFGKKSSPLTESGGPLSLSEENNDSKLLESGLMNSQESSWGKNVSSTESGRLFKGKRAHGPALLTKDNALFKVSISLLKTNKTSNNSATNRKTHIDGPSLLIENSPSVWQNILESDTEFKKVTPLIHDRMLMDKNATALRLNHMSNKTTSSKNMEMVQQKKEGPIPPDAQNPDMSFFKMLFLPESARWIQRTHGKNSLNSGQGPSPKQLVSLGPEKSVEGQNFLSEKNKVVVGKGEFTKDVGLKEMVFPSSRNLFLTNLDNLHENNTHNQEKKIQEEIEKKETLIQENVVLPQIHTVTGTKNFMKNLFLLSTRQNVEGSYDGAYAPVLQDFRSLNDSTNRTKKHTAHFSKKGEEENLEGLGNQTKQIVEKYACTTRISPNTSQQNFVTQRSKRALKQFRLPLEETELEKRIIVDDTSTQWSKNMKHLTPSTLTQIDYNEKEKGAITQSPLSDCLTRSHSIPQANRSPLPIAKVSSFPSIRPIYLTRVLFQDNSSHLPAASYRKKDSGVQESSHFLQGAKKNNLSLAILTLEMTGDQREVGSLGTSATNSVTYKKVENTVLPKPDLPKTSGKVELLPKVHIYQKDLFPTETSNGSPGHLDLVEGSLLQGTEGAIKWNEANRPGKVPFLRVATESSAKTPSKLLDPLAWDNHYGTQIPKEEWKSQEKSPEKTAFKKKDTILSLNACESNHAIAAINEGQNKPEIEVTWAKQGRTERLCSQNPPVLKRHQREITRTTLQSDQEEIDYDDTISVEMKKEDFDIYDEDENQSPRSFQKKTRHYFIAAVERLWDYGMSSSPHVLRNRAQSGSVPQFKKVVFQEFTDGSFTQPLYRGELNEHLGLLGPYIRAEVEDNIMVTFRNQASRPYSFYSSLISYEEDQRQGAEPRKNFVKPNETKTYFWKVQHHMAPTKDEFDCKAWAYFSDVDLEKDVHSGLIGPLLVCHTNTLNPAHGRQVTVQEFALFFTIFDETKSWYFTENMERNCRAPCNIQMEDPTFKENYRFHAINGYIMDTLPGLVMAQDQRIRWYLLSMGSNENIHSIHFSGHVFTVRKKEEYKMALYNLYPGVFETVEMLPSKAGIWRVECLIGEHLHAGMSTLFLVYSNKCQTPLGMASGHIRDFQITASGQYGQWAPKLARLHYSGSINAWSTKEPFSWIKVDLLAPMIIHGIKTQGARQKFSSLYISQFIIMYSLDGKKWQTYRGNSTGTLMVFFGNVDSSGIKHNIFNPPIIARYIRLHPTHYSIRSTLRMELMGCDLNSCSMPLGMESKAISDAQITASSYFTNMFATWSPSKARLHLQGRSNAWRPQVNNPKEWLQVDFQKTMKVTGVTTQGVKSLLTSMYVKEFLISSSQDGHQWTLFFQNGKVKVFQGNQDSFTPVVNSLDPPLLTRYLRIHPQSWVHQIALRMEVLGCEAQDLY

B1: tissue type plasminogen activator (tPA; Actilyse, Boehringer-Ingelheim) (protein)
chain: SYQVICRDEKTQMIYQQHQSWLRPVLRSNRVEYCWCNSGRAQCHSVPVKSCSEPRCFNGGTCQQALYFSDFVCQCPEGFAGKCCEIDTRATCYEDQGISYRGTWSTAESGAECTNWNSSALAQKPYSGRRPDAIRLGLGNHNYCRNPDRDSKPWCYVFKAGKYSSEFCSTPACSEGNSDCYFGNGSAYRGTHSLTESGASCLPWNSMILIGKVYTAQNPSAQALGLGKHNYCRNPDGDAKPWCHVLKNRRLTWEYCDVPSCSTCGLRQYSQPQFRIKGGLFADIASHPWQAAIFAKHRRSPGERFLCGGILISSCWILSAAHCFQERFPPHHLTVILGRTYRVVPGEEEQKFEVEKYIVHKEFDDDTYDNDIALLQLKSDSSRCAQESSVVRTVCLPPADLQLPDWTECELSGYGKHEALSPFYSERLKEAHVRLYPSSRCTSQHLLNRTVTDNMLCAGDTRSGGPQANLHDACQGDSGGPLVCLNDGRMTLVGIISWGLGCGQKDVPGVYTKVTNYLDWIRDNMRP
With B1, the “tPA mediated plasminogen activation assay” value in [1] was “cH5-4 (37% of standard)”; in series [2], “cH5-2 (150% of standard)”; in series [4] it was “cH5-3 (200% of standard)”; in series [9], “cH5-1 (50% of standard)”; in [11], “nH5 (140% of standard)”. For the same protein, the “tPA/Plg activation assay, compared to a misfolded ovalbumin standard” value is “cross-beta fVIII forms 1, 12 and 5 is approximately 50, 75 and 125%” in series [3]; “cross-beta fVIII forms 1, 12 and 5 is approximately 50, 75 and 125%” in series [6]; “cross-beta fVIII forms 1, 12 and 5 is approximately 50, 75 and 125%” in series [8]. Further, the tPA activation potency, activation at 10 ug/mL (% of reference) in [5] was determined as 97.4; in series [7], 60.9; in series [10], 107; in series [12] it was 48.8. Also, the tPA activation potency, activation at 25 ug/mL (% of reference) was found to be 136 in [5], 79 in series [7], 107 in series [10] and 48.1 in series [12]. Besides, the tPA activation potency, reference dOVA-2 at 80 ug/mL (column 10 ug/mL) (% of reference) in series [10] was 100. The protein also gave a tPA activation potency, reference dOVA-2 at 80 ug/mL (column 25 ug/mL) (% of reference) in series [10] of 100.
